Assay results reported in US7446182.
Like-named read-outs stand apart in the source and are kept apart here.

Experiments:
[1] = target: Bacillus anthracis protective antigen (PA), 83 kDa polypeptide (Bacillus anthracis) (UniProt P13423); assay: SPR, PA immobilized on CM5 chip
[2] = target: Bacillus anthracis protective antigen (PA), 83 kDa polypeptide (Bacillus anthracis) (UniProt P13423); assay: SPR, PA immobilized on CM5 chip at low coupling density
[3] = target: Bacillus anthracis protective antigen (PA), 83 kDa polypeptide (Bacillus anthracis) (UniProt P13423); assay: SPR, PA immobilized on CM5 chip; remark: listed apart in the source
[4] = target: Bacillus anthracis protective antigen (PA), 83 kDa polypeptide (Bacillus anthracis) (UniProt P13423); assay: ELISA on PA; scFv kept 2 h at 4 C before the titration

Sequence of Bacillus anthracis protective antigen (PA), 83 kDa polypeptide (Bacillus anthracis) (P13423 30-764 limits assumed): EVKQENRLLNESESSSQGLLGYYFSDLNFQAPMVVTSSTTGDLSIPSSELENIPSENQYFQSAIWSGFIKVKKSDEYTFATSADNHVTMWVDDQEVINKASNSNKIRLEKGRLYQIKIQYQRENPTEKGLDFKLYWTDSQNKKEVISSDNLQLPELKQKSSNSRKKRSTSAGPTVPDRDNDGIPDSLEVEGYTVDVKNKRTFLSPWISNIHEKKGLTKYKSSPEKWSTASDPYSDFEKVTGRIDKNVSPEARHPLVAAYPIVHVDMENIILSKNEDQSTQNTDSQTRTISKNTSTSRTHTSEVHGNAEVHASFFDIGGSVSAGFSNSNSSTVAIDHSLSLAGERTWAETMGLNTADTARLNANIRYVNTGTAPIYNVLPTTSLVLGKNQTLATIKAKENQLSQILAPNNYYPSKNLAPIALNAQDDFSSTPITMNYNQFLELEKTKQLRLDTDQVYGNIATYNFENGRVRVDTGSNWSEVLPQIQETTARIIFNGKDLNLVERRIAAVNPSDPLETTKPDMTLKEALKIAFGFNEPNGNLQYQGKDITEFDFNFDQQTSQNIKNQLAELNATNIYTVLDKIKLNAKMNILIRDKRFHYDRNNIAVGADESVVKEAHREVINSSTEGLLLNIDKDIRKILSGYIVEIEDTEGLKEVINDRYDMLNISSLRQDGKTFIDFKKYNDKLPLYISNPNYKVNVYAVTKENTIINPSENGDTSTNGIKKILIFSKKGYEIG

| Substance | koff [1] [s⁻¹] | kon [1] [M⁻¹ s⁻¹] | Kd [2] [µM] | Kd [1] [µM] | koff [3] [s⁻¹] | kon [3] [M⁻¹ s⁻¹] | EC50 (read off the curve) [4] [µg/mL] |
| --- | --- | --- | --- | --- | --- | --- | --- |
| 14B7 wild type scAb (scFv with a C-terminal human constant kappa domain) | 0.003 | 290000 | – | – | – | – | – |
| 14B7 monoclonal antibody (mouse IgG1 from hybridoma 14B7) | 0.00135 | 500000 | 0.0023 | – | – | – | – |
| 14B7 Fab (papain digest of the 14B7 mouse IgG1) | 0.0033 | 300000 | – | 0.012 | 0.0035 | 310000 | – |
| 14B7 wild type scFv | 0.0032 | 310000 | – | 0.012 | 0.0035 | – | 0.05 |
